Experimental data as given in patent publication US7514408.
Square brackets hold non-standard residues; d marks the D form. Ends that are not written are not given here. Sta = CC(C)C[C@H](N)[C@@H](O)CC(=O)O; Phg = N[C@H](C(=O)O)c1ccccc1; Tle = CC(C)(C)[C@H](N)C(=O)O; Abu = CC[C@H](N)C(=O)O

Tests used:
[1] = target: β-secretase (enzyme preparation not stated for the inhibitor assays) (human) (UniProt P56817); assay: cell-based or functional assay
[2] = target: Swedish mutant P13-P5′ peptide with P1′ aspartic acid replaced with a leucine (D→L), P05067
Chain of Swedish mutant P13-P5′ peptide with P1′ aspartic acid replaced with a leucine (D→L), P05067 (P05067 whole entry, looked up, change not shown, tested part not stated): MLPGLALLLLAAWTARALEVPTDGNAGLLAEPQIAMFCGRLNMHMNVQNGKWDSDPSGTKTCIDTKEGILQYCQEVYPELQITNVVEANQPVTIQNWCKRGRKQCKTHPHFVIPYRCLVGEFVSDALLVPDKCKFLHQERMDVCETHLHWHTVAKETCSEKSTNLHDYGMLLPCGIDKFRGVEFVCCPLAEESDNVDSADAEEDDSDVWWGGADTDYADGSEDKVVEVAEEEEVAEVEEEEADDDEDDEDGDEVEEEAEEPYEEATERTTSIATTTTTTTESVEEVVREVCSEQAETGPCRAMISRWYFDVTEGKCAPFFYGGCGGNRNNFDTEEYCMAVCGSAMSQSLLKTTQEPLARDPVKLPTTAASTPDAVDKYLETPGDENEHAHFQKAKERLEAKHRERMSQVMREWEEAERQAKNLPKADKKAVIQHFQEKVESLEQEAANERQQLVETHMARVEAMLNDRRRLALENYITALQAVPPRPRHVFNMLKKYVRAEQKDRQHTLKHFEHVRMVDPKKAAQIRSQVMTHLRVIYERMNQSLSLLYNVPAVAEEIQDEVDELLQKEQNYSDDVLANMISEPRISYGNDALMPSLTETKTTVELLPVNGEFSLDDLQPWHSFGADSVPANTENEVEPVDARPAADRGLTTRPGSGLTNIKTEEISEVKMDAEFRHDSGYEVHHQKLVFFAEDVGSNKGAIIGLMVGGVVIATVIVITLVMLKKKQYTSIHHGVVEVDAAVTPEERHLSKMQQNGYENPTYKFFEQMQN

[3] = target: Swedish mutant P13-P5′ peptide with P1′ aspartic acid replaced with a valine (D→V), P05067
Chain of Swedish mutant P13-P5′ peptide with P1′ aspartic acid replaced with a valine (D→V), P05067 (P05067 whole entry, looked up, change not shown, tested part not stated): as above

Row | Binder | IC50 Group, MBP C125 assay (Group II: =1<10 µM) [1] [µM] | other results
1 | Ac-VM[Sta][Tle]AEF [heptamer peptide 7F (Ac-Val-Met-Sta-tLeu-Ala-Glu-Phe)] |  | IC50 Group, MBP C125 assay (Group IV: =20<50 µM) [1]: < 50 µM
2 | Ac-VM[Sta]AAEF [heptamer peptide 7E (Ac-Val-Met-Sta-Ala-Ala-Glu-Phe)] | < 10 | 
3 | β-secretase purified from human brain (naturally occurring β-secretase) (protein) ETDEEPEEPGRRGSFVEMVDNLRGKSGQGYYVEMTVGSPPQTLNILVDTGSSNFAVGAAPHPFLHRYYQRQLSSTYRDLRKGVYVPYTQGKWEGELGTDLVSIPHGPNVTVRANIAAITESDKFFINGSNWEGILGLAYAEIARPDDSLEPFFDSLVKQTHVPNLFSLQLCGAGFPLNQSEVLASVGGSMIIGGIDHSLYTGSLWYTPIRREWYYEVIIVRVEINGQDLKMDCKEYNYDKSIVDSGTTNLRLPKKVFEAAVKSIKAASSTEKFPDGFWLGEQLVCWQAGTTPWNIFPVISLYLMGEVTNQSFRITILPQQYLRPVEDVATSQDDCYKFAISQSSTGTVMGAVIMEGFYVVFDRARKRIGFAVSACHVHDEFRTAAVEGPFVTLDMEDCGYNIPQTDESTLMTIAYVMAAICALFMLPLCLMVCQWRCLRCLRQQHDDFADDISLLK |  | substrate concentration dependence of hydrolysis by brain β-secretase [2]: The valine and leucine substituted Swedish peptides show saturation at a lower concentration than the parent Swedish peptide; substrate concentration dependence of hydrolysis by brain β-secretase [3]: The valine and leucine substituted Swedish peptides show saturation at a lower concentration than the parent Swedish peptide
4 | Ac-VE[Sta]VAEF [heptamer peptide 7K (Ac-Val-Glu-Sta-Val-Ala-Glu-Phe)] | < 10 | 
5 | Ac-VM[Sta][Abu]AEF [heptamer peptide 7C (Ac-Val-Met-Sta-Abu-Ala-Glu-Phe)] | < 10 | 
6 | Ac-VM[Sta][Phg]AEF [heptamer peptide 7D (Ac-Val-Met-Sta-Phg-Ala-Glu-Phe)] | < 10 | 
7 | Ac-VV[Sta]VAEF [heptamer peptide 7L (Ac-Val-Val-Sta-Val-Ala-Glu-Phe)] |  | IC50 Group, MBP C125 assay (Group IV: =20<50 µM) [1]: < 50 µM

The next lines start with results.

Row | IC50 Group, MBP C125 assay (Group II: =1<10 µM) [1] [µM] | Binder | other results
8 | < 10 | Ac-VM[Sta]AEF [hexameric peptide 7N (Ac-Val-Met-Sta-Ala-Glu-Phe, P1′ deleted)] | 
9 | < 10 | H-VM[Sta]VEF [hexameric peptide 7R ((NH2)Val-Met-Sta-Val-Glu-Phe, P2′ deleted)] | 
10 | < 10 | Ac-VG[Sta]VAEF [heptamer peptide 7M (Ac-Val-Gly-Sta-Val-Ala-Glu-Phe)] | 
